From paper PMC8725159, “CryoEM analysis of small plant biocatalysts at sub-2 Å resolution” (Acta Crystallographica. Section D, Structural Biology, 2022) come the findings set out here.

Values joined by “and” are separate entries in the source; they are usually repeats but may differ in a detail not shown here. Equal values may be shown once.

In data set [1] the target is borneol dehydrogenase 1 from Salvia rosmarinus (SrBDH1) (Salvia rosmarinus). Nature of the data set: SEC-MALS; Superdex 200 Increase 10/300 column, 18°C, miniDAWN TREOS detector with refractive-index detector. (In general: In gel filtration, larger molecules generally elute earlier.)
For data set [2] the target is unchanged. Nature of the data set: cryo-EM structure; single-particle cryoEM, 1 mg/ml on UltrAuFoil R1.2/1.3 grids, Titan Krios 300 kV, Falcon 3EC, D2 symmetry imposed.
Data set [3] concerns the molecule itself. Briefly: SEC-MALS; Superdex 200 Increase 10/300 column, 18°C, miniDAWN TREOS detector with refractive-index detector.

For “borneol dehydrogenase 1 from Salvia rosmarinus (SrBDH1) (enzyme)”, the stoichiometry N in data set [1] and in data set [2] was 4 throughout.

B1: borneol dehydrogenase 2 from Salvia officinalis (SoBDH2) (enzyme)
chain: MATGAANVESPQSLPLRLLGRVALVTGGSSGIGESIVLLFRKHGAKVCIADVQDNQGQRLCETLGGSSDIAFCHCDVTIEDDVKRAVDFTVDKFGTLDIMVNNAGVSGPPCPDIRDFELSAFDRVFDINVRGVFIGMKHAARIMIPAKKGSIISISSVASTMGGLGPHAYTGSKHAVLGLTKNVAAELGKHGIRVNCVSPYAVATSLALAHLPEAERTEDTWDDFRRFVADNANLQGVELTMEDVANAVVFLASDEARYVSGMNLMVDGGFTSTNHALQVFRP
notes: borneol-type dehydrogenase SoBDH2 from Salvia officinalis, GenBank MT525099; synthetic gene codon-optimized for E. coli; theoretical molecular mass with the His6 tag 32.2 kDa; Homotetramer with D2 symmetry in cryoEM; also called Salvia officinialis borneol dehydrogenase 2; source: E. coli BL21-RIL, purified (Ni-NTA, SEC); not shown: His6, N-terminal, kept
As for B1, in data set [3], the stoichiometry N (usually the number of molecules, sites or subunits per partner or assembly) was 8 and 4.
